In IntAct's records for PubMed 11675338:

Key:
fog1_mouse Zfpm1 [1] = biological target: fog1_mouse Zfpm1 (UniProt O35615)
fog1_mouse Zfpm1 [2] = biological target: fog1_mouse Zfpm1 (UniProt O35615); remark: listed apart in the source
fog1_mouse Zfpm1 [3] = biological target: fog1_mouse Zfpm1 (UniProt O35615); remark: listed apart in the source

Sequence of fog1_mouse Zfpm1 (O35615 whole entry): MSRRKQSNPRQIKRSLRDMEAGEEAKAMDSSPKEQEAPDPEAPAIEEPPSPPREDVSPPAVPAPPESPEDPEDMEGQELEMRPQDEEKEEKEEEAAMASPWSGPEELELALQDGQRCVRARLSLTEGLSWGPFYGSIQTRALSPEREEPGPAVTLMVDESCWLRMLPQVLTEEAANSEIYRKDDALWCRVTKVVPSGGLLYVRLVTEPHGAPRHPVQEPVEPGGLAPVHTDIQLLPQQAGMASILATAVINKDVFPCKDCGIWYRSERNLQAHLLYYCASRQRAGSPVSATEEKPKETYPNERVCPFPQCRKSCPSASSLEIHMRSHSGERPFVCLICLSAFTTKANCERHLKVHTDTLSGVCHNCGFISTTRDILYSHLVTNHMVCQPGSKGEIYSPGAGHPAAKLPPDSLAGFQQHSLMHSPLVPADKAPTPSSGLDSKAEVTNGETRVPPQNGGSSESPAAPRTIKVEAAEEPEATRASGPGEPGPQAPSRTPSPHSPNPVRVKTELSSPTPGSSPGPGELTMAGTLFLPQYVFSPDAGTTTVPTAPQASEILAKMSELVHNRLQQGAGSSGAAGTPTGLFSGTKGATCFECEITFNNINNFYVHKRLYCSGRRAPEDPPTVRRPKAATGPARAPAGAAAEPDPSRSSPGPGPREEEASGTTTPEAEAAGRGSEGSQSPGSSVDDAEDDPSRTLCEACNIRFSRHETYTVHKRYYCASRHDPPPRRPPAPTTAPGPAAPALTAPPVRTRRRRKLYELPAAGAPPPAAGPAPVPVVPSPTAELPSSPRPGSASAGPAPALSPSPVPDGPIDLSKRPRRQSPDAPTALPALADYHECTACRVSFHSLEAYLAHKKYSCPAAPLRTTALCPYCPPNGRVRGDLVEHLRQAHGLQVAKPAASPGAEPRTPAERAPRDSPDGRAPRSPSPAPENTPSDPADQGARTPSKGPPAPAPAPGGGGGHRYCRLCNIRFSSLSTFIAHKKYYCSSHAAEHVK
Sequence of Erythroid transcription factor (Homo sapiens), P15976 G208S (P15976 whole entry G208S): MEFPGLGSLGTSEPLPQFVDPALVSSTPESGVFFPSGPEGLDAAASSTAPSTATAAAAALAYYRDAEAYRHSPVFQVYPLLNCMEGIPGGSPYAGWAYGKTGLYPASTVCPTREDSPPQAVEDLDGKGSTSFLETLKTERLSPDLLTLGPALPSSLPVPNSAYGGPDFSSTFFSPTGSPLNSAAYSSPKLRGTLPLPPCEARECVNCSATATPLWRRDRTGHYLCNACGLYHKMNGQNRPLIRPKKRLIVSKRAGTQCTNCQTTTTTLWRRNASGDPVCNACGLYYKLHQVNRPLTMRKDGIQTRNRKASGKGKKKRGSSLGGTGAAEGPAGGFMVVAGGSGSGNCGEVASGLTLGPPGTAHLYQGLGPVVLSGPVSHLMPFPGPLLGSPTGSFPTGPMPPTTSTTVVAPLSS

effect of a mutation on the interaction (fog1_mouse Zfpm1 [1]): increasing interaction strength | effect of a mutation on the interaction (fog1_mouse Zfpm1 [2]): with no effect | effect of a mutation on the interaction (fog1_mouse Zfpm1 [3]): decreasing interaction strength
Substance: Erythroid transcription factor (Homo sapiens), P15976 G208S
